# B1: HsKYNase_66-Ct6XHis (HsKYNase_66 with a C-terminal 6X-Histidine Tag) (enzyme, human)
# chain: MEPSSLELPADTVQRIAAELKCHPTDERVALHLDEEDKLRHFRECFYIPKIQDLPPVDLSLVNKDEDAIYFNGNSLGLQPKMVKTYLEEELDKWAKIAIYGWFEGDSPWIHYDESIVGLMKDIVGANEKEIVLMNTLTVNLHLLMLSFFKPTPKRYKILLEAKAFPSDHYAIESQLQLHGLNIEESMRIIKPREGEETLRIEDILEVIEKEGDSIAVILFSGIHYYTGQHFNIPAITKAGQAKGCYVGFDLAHAVGNVELYLHDWGVDFACWCGYKYLNSSPGGIAGAFIHEKHAHTIKPALVGWFGHELSTRFKMDNKLQLIPGVCGFRCSTPPILLVCILHASLEIFKQATMKALRKKSVLLTGYLEYLIKHNYGKDKAATKKPVVNIITPSHVEERGCQLTLTFNVPNKDVFQELEKRGVVCDKRNPNGIRVAPVPLYNSFHDVYKFTNLLTSILDSAETKN
# modifications: PLP cofactor bound as internal aldimine
# Target: the molecule itself
# Assay: crystal structure
protein,measurement,value
B1,stoichiometry N,2

# Reference: paper PMC9717613 (Nature catalysis, 2022)
